Source: the supplement of paper PMC10126150
± gives the standard deviation of the averaged measurements.

Tested on: ATP
Assay: switch fluorescence ratio, 500 uM ATP over buffer (Cy3 cluster intensity, sum of 5 cycles each) (fold (ratio)); higher = stronger signal-on switching upon ATP binding; sequences stand for … in TCGTCGGCAGCGTCAGATGTGTATAAGAGACAGTTTTTTTTTTTTTTTTTTTTTTTTT…TC
Conditions: aptamer strand: ATP DNA aptamer (quencher-CACCTGGGGGAGTATTGCGGAGGAAGG + anchor), 100 nM annealed; ATP concentration: 500 uM
Outline: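 The fluorescence ratio divides summed target-cycle Cy3 intensity by summed buffer-cycle Cy3 intensity for each cluster and is averaged per switch-domain sequence. Cy3-labelled switching-strand clusters on a modified Illumina MiSeq flow-cell were annealed to 100 nM quencher-labelled ATP aptamer, then imaged in selection buffer and again after 15 min with 500 uM ATP at 22 °C. Five such cycles were run, with NaOH stripping and re-annealing between them, and clusters outside 100-1000 RFU were excluded.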
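Also: ATP exposure 15 min at 22 °C before imaging.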

Sequence	switch fluorescence ratio
TACGTCACCT	1.71 ± 0.048
TACGTCGCTG	0.971 ± 0.023
TACGTCTTAG	0.972 ± 0.048
TACGTGTTTT	1 ± 0.0081
TACGTTGAAA	1.17 ± 0.19
TACGTTGGGG	1 ± 0.028
TACGTTTTCT	1.02 ± 0.049
TACTAATTGG	0.9961 ± 0.0086
TACTACGTGC	1.28 ± 0.019
TACTAGGCAA	1.21 ± 0.04
TACTATACGA	1.367 ± 0.0015
TACTCCATAT	1.14 ± 0.019
TACTCGTGGT	1 ± 0.064
TACTCTGAAA	2.38 ± 0.48
TACTCTGGAA	4.15 ± 0.18
TACTGAGTTA	1 ± 0.015
TACTGATTCA	1.02 ± 0.025
TACTGCATAG	1.044 ± 0.0091
TACTGCGGCA	1.04 ± 0.031
TACTGGGCTT	1.024 ± 0.0014
TACTGGGGCA	0.9842 ± 0.0028
TACTGTGTAT	1.01 ± 0.035
TACTGTTCGA	1.05 ± 0.016
TACTTAAAGT	1 ± 0.022
TACTTACTCG	1.241 ± 0.0038
TACTTATCTG	1.01 ± 0.019

Sequence	switch fluorescence ratio
TACTTCTGTG	1 ± 0.018
TACTTGAGGG	1.01 ± 0.019
TACTTGGTT	1.01 ± 0.02
TACTTTGTC	1.03 ± 0.021
TACTTTGTGA	1.1 ± 0.15
TACTTTTGGA	1.02 ± 0.04
TACTTTTTAT	1.01 ± 0.018
TAGAAACCCG	1.04 ± 0.024
TAGAAAGACT	1.07 ± 0.067
TAGAAATGGG	1.19 ± 0.33
TAGAAGAAGG	0.9842 ± 0.0031
TAGAAGCCCC	1.09 ± 0.039
TAGAAGCCTG	1.03 ± 0.053
TAGAAGGGGC	0.989 ± 0.067
TAGAAGTTGT	1 ± 0.022
TAGAATGGCC	1.01 ± 0.041
TAGAATGTGG	0.994 ± 0.042
TAGACCGTTC	1.108 ± 0.0068
TAGACGTAGG	1.03 ± 0.028
TAGAGAAGCC	1.04 ± 0.025
TAGAGAGCT	1.02 ± 0.015
TAGAGAGGCG	0.9981 ± 0.0084
TAGAGCTAAT	1.09 ± 0.17
TAGAGCTGTT	0.969 ± 0.031
TAGAGGCCTG	1.04 ± 0.017
TAGAGGGATG	0.989 ± 0.015

Sequence	switch fluorescence ratio
TAGAGGGGAA	1.024 ± 0.0034
TAGAGGGGG	1.01 ± 0.014
TAGAGGTAAT	1.01 ± 0.022
TAGAGGTCTT	0.98 ± 0.016
TAGAGTAGTG	0.999 ± 0.05
TAGAGTTAAG	0.9747 ± 0.0046
TAGATAAATT	0.9965 ± 0.008
TAGATATGCG	1.03 ± 0.015
TAGATATTTA	1.01 ± 0.0087
TAGATGCACA	0.9516 ± 0.0037
TAGATGGGGG	1 ± 0.011
TAGATGTAAC	0.975 ± 0.029
TAGATGTTCG	0.978 ± 0.044
TAGATTGATG	1.0281 ± 0.00078
TAGATTTGTT	1.01 ± 0.03
TAGATTTTTA	0.987 ± 0.028
TAGATTTTTT	1.02 ± 0.019
TAGCAAAGAA	1.03 ± 0.03
TAGCACAGTG	1.15 ± 0.15
TAGCAGGCTA	1 ± 0.013
TAGCAGGGTC	1.089 ± 0.0072
TAGCATAACC	1.181 ± 0.0097
TAGCATGCGG	1.01 ± 0.019
TAGCATGTTC	1.09 ± 0.049
TAGCATTCTA	1.013 ± 0.0054
TAGCATTTTT	1.07 ± 0.14

Sequence	switch fluorescence ratio
TAGCCAAGTC	1.02 ± 0.01
TAGCCAGGGG	1.2 ± 0.076
TAGCCATTGG	1.05 ± 0.081
TAGCCCCCAG	1.6 ± 0.78
TAGCCCGTGG	1.02 ± 0.027
TAGCCGGGGA	1.01 ± 0.032
TAGCCGTCTA	1.058 ± 0.0034
TAGCGAATAG	1.19 ± 0.043
TAGCGCATGG	1.08 ± 0.046
TAGCGGGGGA	1.04 ± 0.019
TAGCGGGGTT	0.9757 ± 0.0054
TAGCGTATGA	1.03 ± 0.014
TAGCTAATTT	0.979 ± 0.027
TAGCTACTTC	1.73 ± 0.93
TAGCTATGTG	0.982 ± 0.038
TAGCTCCGGG	1.055 ± 0.0063
TAGCTCGGGA	0.9742 ± 0.0097
TAGCTCGGTG	1 ± 0.042
TAGCTGAGTT	0.984 ± 0.014
TAGCTGGAGG	0.998 ± 0.035
TAGCTGGATG	0.98618 ± 0.00039
TAGCTGGCAC	1.02 ± 0.0034
TAGCTGTTAT	0.997 ± 0.03
TAGCTGTTTT	1.02 ± 0.02
TAGCTTGTTG	1.02 ± 0.025
TAGCTTTTTA	1 ± 0.026

Sequence	switch fluorescence ratio
TAGGAAATTT	1.03 ± 0.087
TAGGAAGGCA	0.967 ± 0.0024
TAGGACACGT	1.03 ± 0.012
TAGGACAGCG	0.969 ± 0.078
TAGGAGCTTG	1 ± 0.042
TAGGAGGGT	1.033 ± 0.0037
TAGGAGGGTT	0.987 ± 0.026
TAGGAGTTGT	0.995 ± 0.016
TAGGATGCAC	1.014 ± 0.0033
TAGGATTAAT	0.999 ± 0.012
TAGGCCAGTT	0.996 ± 0.011
TAGGCCGCTG	1.07 ± 0.15
TAGGCGCTAG	0.999 ± 0.011
TAGGCGTGTC	0.992 ± 0.016
TAGGCTTGAA	1.03 ± 0.028
TAGGGAAGGG	0.976 ± 0.032
TAGGGAATCA	0.97 ± 0.014
TAGGGACTAG	1.02 ± 0.015
TAGGGACTAT	1.02 ± 0.018
TAGGGAGAGT	1.01 ± 0.022
TAGGGAGCCT	0.964 ± 0.016
TAGGGAGGCT	0.992 ± 0.038
TAGGGATGGG	1.02 ± 0.019
TAGGGCAGGG	1 ± 0.0022
TAGGGCGAGG	0.9899 ± 0.001
TAGGGCGCAG	0.959 ± 0.028

Sequence	switch fluorescence ratio
TAGGGCGGAG	0.957 ± 0.025
TAGGGCGGGT	0.972 ± 0.039
TAGGGCTGTG	0.995 ± 0.059
TAGGGGAAAG	0.99 ± 0.052
TAGGGGAGCT	0.974 ± 0.067
TAGGGGATTG	1 ± 0.02
TAGGGGCAGC	1.01 ± 0.0054
TAGGGGCGAG	0.989 ± 0.048
TAGGGGCGAT	1.01 ± 0.032
TAGGGGCTCG	0.999 ± 0.032
TAGGGGCTG	1.01 ± 0.015
TAGGGGGAGC	1.01 ± 0.062
TAGGGGGGCT	0.968 ± 0.045
TAGGGGGTAG	1.01 ± 0.036
TAGGGGGTGG	1 ± 0.03
TAGGGGGTGT	0.991 ± 0.018
TAGGGGTACA	1.03 ± 0.016
TAGGGGTTGC	1.1 ± 0.11
TAGGGTAGGT	0.974 ± 0.0049
TAGGGTATGA	1.01 ± 0.02
TAGGGTGCTG	1.09 ± 0.16
TAGGGTTAAG	0.9994 ± 0.004
TAGGGTTGCA	1 ± 0.057
